Reference: article PMC7854685, “Histone Parylation factor 1 contributes to the inhibition of PARP1 by cancer drugs” (Nature Communications, 2021)

Assays:
[1] = biological target: T1, Poly-(ADP-ribose) polymerase 1 (PARP1), wild type, labelled with Alexa488, bound to p18mer DNA (UniProt P09874 1-1014, Alexa488 C4 maleimide label (extent of labeling typically 50-100%)); test: FRET or BRET; as a3 but with olaparib (1 uM): Alexa647-HPF1 titrated into Alexa488-PARP1 (0.2 uM) premixed with p18mer DNA (0.2 uM) and olaparib; binding buffer; settings: both partners purified
T1 construct: Poly-(ADP-ribose) polymerase 1 (PARP1), wild type; In the assay premixed with p18mer double-stranded DNA (0.2 uM); the DNA is no protein chain; also called PARP1 - p18mer complex; 488-labeled PARP1
T1 sequence (P09874 whole entry): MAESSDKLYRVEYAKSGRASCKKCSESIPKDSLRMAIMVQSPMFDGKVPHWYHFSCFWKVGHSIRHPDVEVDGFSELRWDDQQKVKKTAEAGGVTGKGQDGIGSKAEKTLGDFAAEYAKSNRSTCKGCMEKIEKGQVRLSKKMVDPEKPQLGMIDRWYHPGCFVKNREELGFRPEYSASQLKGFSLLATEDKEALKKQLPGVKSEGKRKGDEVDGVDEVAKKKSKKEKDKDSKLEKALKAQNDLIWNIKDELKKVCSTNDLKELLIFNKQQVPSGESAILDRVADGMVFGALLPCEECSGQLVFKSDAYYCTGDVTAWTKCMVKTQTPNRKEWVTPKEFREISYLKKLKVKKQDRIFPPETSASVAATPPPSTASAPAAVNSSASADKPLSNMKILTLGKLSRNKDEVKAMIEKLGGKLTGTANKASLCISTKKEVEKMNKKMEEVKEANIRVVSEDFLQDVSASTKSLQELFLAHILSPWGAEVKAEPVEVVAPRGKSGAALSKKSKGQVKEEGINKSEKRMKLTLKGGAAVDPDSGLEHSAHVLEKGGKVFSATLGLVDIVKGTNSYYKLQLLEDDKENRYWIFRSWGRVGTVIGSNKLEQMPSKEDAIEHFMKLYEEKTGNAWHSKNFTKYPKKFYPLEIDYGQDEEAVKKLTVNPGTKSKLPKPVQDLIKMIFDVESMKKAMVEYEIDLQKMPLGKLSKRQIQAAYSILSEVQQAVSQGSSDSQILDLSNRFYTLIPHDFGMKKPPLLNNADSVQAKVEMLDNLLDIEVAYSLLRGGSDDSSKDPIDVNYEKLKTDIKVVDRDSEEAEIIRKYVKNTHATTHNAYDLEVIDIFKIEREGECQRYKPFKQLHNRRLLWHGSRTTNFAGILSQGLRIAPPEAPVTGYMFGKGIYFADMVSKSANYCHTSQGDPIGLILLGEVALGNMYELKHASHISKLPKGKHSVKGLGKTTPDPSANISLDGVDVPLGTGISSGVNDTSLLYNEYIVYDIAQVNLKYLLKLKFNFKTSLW

[2] = biological target: T1, Poly-(ADP-ribose) polymerase 1 (PARP1), …; test: FRET or BRET; Alexa647-HPF1 (0.6-10,000 nM) titrated into Alexa488-PARP1 (0.2 uM) premixed with p18mer DNA (0.2 uM) and DMSO (control, no olaparib); binding buffer 50 mM Tris-HCl pH 8.0, 50 mM NaCl, 1 mM MgCl2, 0.1 mM EDTA, 0.01% IGEPAL; settings: both partners purified

Kd [1]: 1200 nM
Kd [2]: 3800 nM
B1: Histone PARylation factor 1 (HPF1), labelled with Alexa647 (natural protein)
chain: LRKEVENHYKLSLPEDFYHFWKFCEELDPEKPSDSLSASLGLQLVGPYDILAGKHKTKKKSTGLNFNLHWRFYYDPPEFQTIIIGDNKTQYHMGYFRDSPDEFPVYVGINEAKKNCIIVPNGDNVFAAVKLFLTKKLREITDKKKINLLKNIDEKLTEAARELGYSLEQRTVKMKQRDKKVVTKTFHGAGLVVPVDKNDVGYRELPETDADLKRICKTIVEAASDEERLKAFAPIQEMMTFVQFANDECDYGMGLELGMDLFCYGSHYFHKVAGQLLPLAYNLLKRNLFAEIIEEHLANRSQENIDQLAA
modifications: Alexa647 C2 maleimide label (extent of labeling typically 50-100%)
notes: Histone PARylation factor 1 (HPF1); also called wild-type protein
